Series [1] in a line: Enzyme activity towards ATP at pH 3 to 9 (malachite green phosphate detection). Type of series: biochemical. The following applies: FIG. 1; 250 μM ATP, 5 mM CaCl2, pH 3 to 9. The protocol: (§1) Enzyme activity towards ATP or ADP at pH 3 to 9: The ability of candidate enzymes to degrade ATP or ADP to AMP and free phosphate (Pi) was measured using a standard malachite green phosphate detection kit (Sigma Aldrich cat no. MAK307). The enzyme reactions were carried out in 96-well plates with a total volume of 150 μL and contained 250 μM of a substrate, 50 mM of a buffer, 5 mM CaCl2, and a variable concentration of enzyme. The substrate was ATP or ADP. The buffer was glycine (pH 3), acetate (pH 4, 4.5, 5), bis-Tris (pH 5.5, 6, 6.5), or Tris (pH 7, 8, 9). The concentration of enzyme varied from about 1 μg/mL to 1 ng/mL and was adjusted based on the activity of the enzyme so that the amount of phosphate released during the assay was with the dynamic range of the assay (5-100 μM phosphate). The enzyme concentration was determined by the absorbance at 280 nm and using the predicted molecular weight and molar extinction coefficient to calculate the concentration. […] The malachite green reaction mixture was allowed to rest at room temperature for 45-60 min and the absorbance at 620 nm was measured. Lastly, the absorbance of the phosphate standards were used to convert the absorbance readings of each sample into phosphate concentrations and the negative control was subtracted from each reaction.

Series [2] in a line: Enzyme activity towards ADP at pH 3 to 9 (malachite green phosphate detection). Type of series: biochemical. As to conditions: FIG. 2; 250 μM ADP, 5 mM CaCl2, pH 3 to 9. Here is the method: as §1
A short description of series [3]: Enzyme acid resistance: residual activity on ATP after incubation at pH 2. Type of series: physicochemical. The following applies: 60 min in acid buffer, 50 mM glycine, 5 mM CaCl2; FIG. 4. The protocol: Enzyme acid resistance: Candidate enzymes were tested for their ability to resist inactivation at low pH by incubating the enzymes in an “acid buffer” of 50 mM glycine and 5 mM CaCl2 at pH 2 for 15 or 60 minutes and comparing their activity to enzymes in a “control buffer” at their optimum pH. The optimum buffer for CRC21323 and CRC21322 was 50 mM acetate pH 4.5 with 5 mM CaCl2. The optimum buffer for all other enzymes was 50 mM bis-Tris pH 6.5 with 5 mM CaCl2. After incubating in the acidic glycine buffer, the enzyme mixtures were neutralized by mixing with an equal volume of neutralization buffer. The neutralization buffer for CRC21323 and CRC21322 was 100 mM acetate and 10 mM CaCl2 at pH 4.5. The neutralization buffer for the other enzymes was 100 mM bis-Tris and 10 mM CaCl2 at pH 6.5. Next, the acid-stressed and control enzyme were tested for their ability to release phosphate from ATP using the reaction conditions and malachite green assay as described in with the following changes. The only substrate tested was ATP. CRC21323 and CRC21322 were tested with a buffer of acetate pH 4.5, but all other enzymes were tested in a buffer of bis-Tris pH 6.5. After determining the concentration of phosphate in each reaction, the residual activity of each enzyme after 15 or 60 min incubation in the “acid buffer” was calculated by dividing the acid-stressed by the control enzyme phosphate concentrations for each enzyme.

Series [4] concerns Acute DSS colitis in C57BL/6 mice. Put plainly: Chemically-induced DSS colitis mouse model, disease activity index (DAI). It counts as in vivo. The text has this:
Acute DSS colitis was induced in C57BL/6 mice according to the previously published method with minor modification (Sann et al., 2013, Life Sci. April 9; 92(12):708-18). The mice were fed 3% (w/v) DSS dissolved in the drinking water on day one to day five. Fresh DSS solution was provided every other day. Control mice (Group 1) drank only distilled water. Groups 4 to 8 received candidate acid phosphatase enzymes by oral gavage and groups 9 to 12 received enzymes via catheter (Table 2). DAI was calculated as described earlier (Cooper et al., 1993, Laboratory investigation; a journal of technical methods and pathology. 69(2):238-49).

Another series relates to Apc/minJ mice. Description: Antibiotic-induced gut inflammation in Apc/minJ mice: DAI, colon length, histopathology. It counts as in vivo. As to conditions: antibiotics cocktail, 10 μg/dose oral gavage. The protocol: (§2) Apc/minJ mice have a mutated adenomatous polyposis coli gene and are more prone to develop colitis and tumors. In this Example, and using this model, 6-7 weeks old mice were subjected to an antibiotics cocktail of vancomycin, ampicillin, and neomycin (1 mg/mL) for 7 days in drinking water in order to induce a gut inflammatory response. Control mice (Groups 1 and 2) drank only distilled water. Groups 4 and 6 received CRC22110 ay 10 μg/dose enzyme by oral gavage and groups 5 and 6 received human microbiota transplant (HMT) by gavage. HMT was prepared by inoculating fecal sample from a healthy human donor in 20 ml of YCFAC media. Culture was grown anaerobically for 16 hrs at 37° C. Cells were collected by centrifugation and washed with PBS. Cells were resuspended in 10% glycerol and cell numbers were estimated by plating on YCFAC agar plates.
Disease Severity: Disease severity was scored using a clinical disease activity index (DAI), calculated as previously described using the following parameters: stool consistency, presence or absence of fecal blood and weight loss (Cooper et al., 1993, Laboratory investigation; a journal of technical methods and pathology. 69(2):238-49). The mice were killed on days 12 and 16, colons were measured, and the tissue was prepared for histopathological studies. The colon was fixed in 10% formaldehyde-saline. Hematoxylin and eosin stain (HE)-stained sections are graded based on a scoring system adapted from Burich et al., 2001, Am. J. Physiol. Gastrointest. Liver Physiol. 281:G764-G778 and Hausmann et al., 2007, Clin Exp Immunol. 2007 May; 148(2):373-81. Histology scoring is performed, and a combined score of inflammatory cell infiltration and tissue damage is determined for all the groups.

The subject of series [5] is commensals from HMT in Apc/minJ mice. Put plainly: Engraftment of human microbiota transplant (HMT) commensals, 16S sequencing of day 13 fecal samples. It counts as in vivo. As to conditions: group 6 (Ab + HMT + Enz) compared with group 5 (Ab + HMT); FIG. 11. The protocol: as §2, with “plates. Promotion of Engraftment: Fecal samples were collected from each mouse per day. Day 13 fecal samples were processed and 16S sequencing was done to evaluate the structure of microbiome. Group 5 was compared with group 6 and engraftment of HMT was evaluated.[…]” for “plates.”

Series [6] can be described thus: ATPase activity at 0.05 ppm enzyme on 0.1 mM ATP (absorbance 620 nm). Type of series: biochemical. An outline of the steps: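 Enzyme at 0.05 ppm with 0.1 mM ATP in 50 mM MES buffer, pH 6 and pH 5, with 5 mM CaCl2; reaction stopped after 5 min. Released phosphate detected by malachite green at 620 nm, water blank subtracted.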
Series [7] is described as follows: Relative activity on ATP of CRC22110 single-site variants. Type of series: biochemical. The following applies: in comparison to CRC22110 wild type.

B1: CRC22110: GDA1/CD39 family enzyme, accession EKE69473.1, SEQ ID NO:9 (predicted mature), SEQ ID NO:1 (protein, listed as Gallaecimonas xiamenensis)
chain: ADKPACRAVFDAGSSGTRLFLYVQQEGGWQPWPGAKLGALADPVRQHQGPKAMAALAADLANSLEALRQDGPTNSEGQPRWQGFDWQQACRLQSVSVLATAGMRLAEQQDPVASVALWQEVQQALAGLLGPAVAIDARTLTGFEEGFYAWLAARARLGRSDMGIVEMGGASSQVAFPCPACDRADDAVQQVRLEGQTLDFYSYSFLGLGQDEAPKVLGVPHACRYGAGVKDPNWQLGQCQAQLPLTLGRALKDPYNFQGQGQGGYRQVPTEKAGVKDWLLTGAFQYNTPDQLDSCCLNQGQCYQPSTACFRVAYLPLYLDSLGVDPHSPDLDVSWTLGAVLCRNEQCLAPSKPPCRWRKAGCLAPSVGDGRPEGRPGQQPGGVQHRQH
Take B1: the “specific activity on ATP over a range of pHs” value in series [1] is on record as “most active enzyme”. Also, the “specific activity on ADP over a range of pHs” value in series [2] is “most active enzyme”. The “residual activity after incubation at pH 2” value in series [3] was “greatest resistance”. Further, the “reduction in DAI score compared to control” value in series [4] (catheterized mice, test items via cecum BID, FIG. 6A, 6B) is 47%. The “DAI score compared to CRCO2733” value in series [4] (non-catheterized mice, oral gavage BID, FIG. 5A, 5B) is “significant reduction”. The “improvement in DAI score compared to control” value in the series with Apc/minJ mice (FIG. 8) is reported as 25%. The “colon length compared to control” value in the series with Apc/minJ mice (FIG. 9) is “significant improvement”. Further, the “focal hyperplasia in the colon (histopathologic analysis)” value in the series on Apc/minJ mice (FIG. 10) is “absent”. Further, the “engraftment of commensals from HMT” value in series [5] is on record as “better engraftment of several commensals from HMT”. In addition, in series [6] (50 mM IVIES buffer pH 5), the “Activity on ATP (absorbance at 620 nm, blank subtracted), pH 5.0” value turned out to be 0.60. Besides, in series [6] (50 mM IVIES buffer pH 6), the “Activity on ATP (absorbance at 620 nm, blank subtracted), pH 6.0” value is given as 0.37. In addition, the “Relative activity (%) on ATP” value in series [7] is 100%.
